In test [1] the target is T1, MAGE-A12 recombinant protein (LVL314) (human, UniProt P43365 1-314).
T1 construct: Purified full-length recombinant protein in ELISA and Western blot; the same id is used for MAGE-A12 in lysates of transfected HEK 293 cells; also called recMA12
In words: ELISA, clone culture supernatant on coated antigen, GAM IgG-HRP, OD 405 nm. On the procedure: (§1) Wells of a Nunc MAXISORP™ 96-well were coated with antigen. The antigen was diluted in Tris-buffered saline (TBS) at 0.1 μg/50 μl for purified recombinant MAGE proteins, or at 0.5 μg/50 μl for peptides conjugated to KLH, and distributed at 50 μl per well and dried overnight at 37° C. The wells were washed several times in TBS and 50 μl of TBS-1% casein was added to each well. Wells were incubated for 1 hour at 37° C. and washed again several times in TBS.
(§2) In total, 75 clones from Example 5 that grew easily after transfer into 24-well plates were tested two days later in ELISA for reactivity with the following antigens: recombinant MAGE-A3, recombinant MAGE-A2; recombinant MAGE-A12; peptide MA3 #1 conjugated to KLH; peptide MA3 #2 conjugated to KLH; and peptide MA3#3 conjugated to KLH.
(§3) For each clone, 50 μl of culture medium supernatant was transferred into a well of a 96-well plate containing 0.1 μg/well of one of the recombinant MAGE proteins or 0.5 μg/well of one of the peptides conjugated to KLH. As positive control, 50 μl of 57B hybridoma supernatant was tested on each of the antigens.
A general note: ELISA stands for enzyme-linked immunosorbent assay.

Test [2] addresses T2, peptide MA3#1 conjugated to KLH (human, also: conjugated to KLH).
T2 construct: MAGE-A3 residues 137-147 with added residue(s) at the N-terminus for linkage to the carrier; also called MAGE-A3 peptide #1; peptide #1
T2 peptide: CGSVVGNWQYFF
The description is as above. Here is the method: as §1, §2, §3

For test [3], the target named is T3, peptide MA3#2 conjugated to KLH (human, also: conjugated to KLH).
T3 construct: MAGE-A3 residues 163-180 with an added N-terminal residue; by an error of synthesis it lacks the Ile of position 177; also called MAGE-A3 peptide #2; peptide #2
T3 peptide: CGIELMEVDPIGHLYFAT
The test is described as above. Here is the method: as §1, §2, §3

The target in test [4] is T4, MAGE-A2 recombinant protein (LVL313) (human, UniProt P43356 1-314).
T4 construct: Purified full-length recombinant protein in ELISA and Western blot; the same id is used for MAGE-A2 in lysates of transfected HEK 293 cells; also called recMA2
T4 sequence (P43356 whole entry): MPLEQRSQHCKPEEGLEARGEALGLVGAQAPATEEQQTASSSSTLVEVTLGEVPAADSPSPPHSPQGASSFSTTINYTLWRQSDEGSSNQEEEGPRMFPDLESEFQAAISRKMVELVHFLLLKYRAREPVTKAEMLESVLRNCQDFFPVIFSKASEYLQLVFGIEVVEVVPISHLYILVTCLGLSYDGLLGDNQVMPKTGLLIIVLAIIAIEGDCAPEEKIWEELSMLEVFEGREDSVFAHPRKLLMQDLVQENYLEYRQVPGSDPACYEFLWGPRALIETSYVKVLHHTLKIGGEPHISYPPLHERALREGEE
The test is described as above. Here is the method:
as §1, §2, §3

Test [5] has as its target T5, peptide MA3#3 conjugated to KLH (human, conjugated to keyhole limpet haemocyanin (KLH)).
T5 construct: MAGE-A3 residues 73-90 with two added residues at the N-terminus for linkage to the carrier; also called MAGE-A3 peptide #3; peptide #3
T5 peptide: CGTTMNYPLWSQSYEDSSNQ
The test is described as above. Here is the method: as §1, §2, §3

The target in test [6] is T6, full-length recombinant MAGE-A3 protein (human, UniProt P43357 1-314).
T6 construct: Full-length recombinant protein (made in baculovirus or E. coli, GSK); Also used here for endogenous MAGE-A3 in GERL cell lysate and for summary statements on MAGE-A3; also called recMA3; MA3
T6 sequence (P43357 whole entry): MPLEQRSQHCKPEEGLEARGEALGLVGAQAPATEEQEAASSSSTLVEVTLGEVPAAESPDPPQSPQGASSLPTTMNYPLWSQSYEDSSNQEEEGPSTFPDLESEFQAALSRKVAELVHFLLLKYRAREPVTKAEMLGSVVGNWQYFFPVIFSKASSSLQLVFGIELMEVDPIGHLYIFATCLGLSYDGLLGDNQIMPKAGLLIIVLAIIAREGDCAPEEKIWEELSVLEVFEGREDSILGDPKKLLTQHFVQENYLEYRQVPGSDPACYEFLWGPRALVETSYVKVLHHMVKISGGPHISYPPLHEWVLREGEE
Nature of the test: ELISA, biotinylated mAb 23D2 on 0.1 µg/well recombinant MAGE-A3, OD 405 nm. Here is the method:
An ELISA against MAGE-A3 was then performed using dilutions of biotinylated mAb 23D2 ([…], 0.1, 0.15, 0.2, 0.25 and 0.3 μg/50 μl) to determine useful conditions of use of the biotinylated mAb 23D2.

Test [7] has as its target T3, peptide MA3#2 conjugated to KLH. In words: ELISA, hybridoma supernatant on 0.5 µg/well peptide-KLH.

Substitutions are numbered along the chain they refer to. Where no end group is shown, it is not given here.

T1 sequence (P43365 whole entry): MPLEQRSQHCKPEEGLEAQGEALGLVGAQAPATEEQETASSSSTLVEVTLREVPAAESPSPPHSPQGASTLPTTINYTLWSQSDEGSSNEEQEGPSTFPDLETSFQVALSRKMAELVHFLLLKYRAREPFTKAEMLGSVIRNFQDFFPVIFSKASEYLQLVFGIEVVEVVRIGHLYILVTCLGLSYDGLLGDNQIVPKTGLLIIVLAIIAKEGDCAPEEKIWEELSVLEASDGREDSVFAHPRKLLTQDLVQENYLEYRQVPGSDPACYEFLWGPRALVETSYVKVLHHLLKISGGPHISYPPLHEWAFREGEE

B1: mAb 16G7 (antibody, IgG1, V domains shown)
VH: EVMVVESGGGLVKPGGSLKLSCAASGFTFRTNAMSWVRQTPEKRLEWVATITSGGGSTYYPVSVKGRFTISRDNAKNTLYLQMSSLRSEDTAIYYCVRQDYFDYWGQGTFVIVSS
VL: QAVVTQESALTTSPGETVTLTCRSSTGAVTSTNYANWVQEKPDHLFTGLIGGTNNRAPGVPARFSGSLIGDKAALTITGAQTEDEAIYFCALWYSNHWVFGGGTKLTVL
notes: also called clone 16G7; hybridoma 16G7
B1: the binding result in test [1] is given as “no binding”; in test [2], “no binding”; in test [3], “no binding”; in test [4], “no binding”; in test [5], “binds”.

B2: mAb 23D2 (antibody, IgG2a, V domains shown)
VH: DVKLVESGGGLVKPGGSLKVSCVASGFTFSSYTMSWVRQTPEKRLEWVATITSGGGSSYYPDSVKGRFTISRDNAKNTLYLQITSLKSEDTAMYYCTSGGGVLLRLPLFAYWGQGTTLTVSS
VL: B1 VL with S31A, T32S, L45S, T53I, S95N
modifications: In the FIG. 8 ELISA and the FIG. 9 competition assay the antibody was biotinylated; the sites are not stated and the letters do not carry them.
notes: also called clone 23D2; hybridoma 23D2
Regarding B2, the binding result in test [1] was “no binding”; in test [2], “no binding”; in test [3], “no binding”; in test [4], “no binding”; in test [5], “binds”. Besides, the “EC50 (read off the curve)” value in test [6] is approximately 0.006 µg/50 µl.

B3: mAb 1B1 (antibody, IgG1, V domains shown)
VH: DVQLQESGPGLVKPSQSLSLTCTVTGYSITSDYVWNWIRQFPGNKLEWMGYIGHSGRTSYNPSLKSRISITRDTSKNQFFLQLNSVTSEDTATYYCARGGNNGFAYWGQGTLVTVSA
VL: DIVMTQSPSSLTVTAGEKVTMSCKSSQSLLNSGNQKNYLTWYQQKPGQPPKLLIYWTSTRDSGVPDRFTGSGSGTDFTLTISSVQAEDLAVYYCQNDYSYPPTFGGGTKLEIKR
notes: Tested as hybridoma supernatant; also called clone 1B1; hybridoma 1B1
In the case of B3, the binding result in test [1] is “no binding”; in test [2] it was “no binding”; in test [4] it was “no binding”; in test [5], “binds”; in test [7], “no binding”.

Values taken from patent publication US20130123472A1 (GlaxoSmithKline, published 2013).
